Laboratory results: the Human Domainome abundance scans (Beltran et al. 2025)

B1: Histone H1t, residues 44 to 112; numbered along this chain, P22492 (parent)
chain: VSKLITEALSVSQERVGMSLVALKKALAAAGYDVEKNNSRIKLSLKSLVNKGILVQTRGTGASGSFKLS
B2: Serine/threonine-protein kinase LATS1, residues 98 to 141; numbered along this chain, O95835 (parent)
chain: TSEVNPQMLQDLQAAGFDEDMVIQALQKTNNRSIEAAIEFISKM

Variants of: B1
Assay: abundance fitness (aPCA) (normalised: wild type 0, dead -1); higher = more abundant; growth selection in yeast, the domain comes from the species named
Conditions: Homo sapiens

Abundance fitness of substitutions, site by site:
Q13: L -0.33, M -0.377, S -0.242, R -0.093, A -0.286, K 0.014, E -0.05, G -0.211, D -0.222, Y -0.212, C -0.233, N -0.206, V -0.342, W -0.471, T -0.128, F -0.613
L9: K -0.194, I 0.045, T 0.03, H -0.915, Q -0.697, M -0.145, C -0.401, V -0.301, S -0.66, Y -0.1, N -0.826, F -0.061
M18: G -0.129, I -0.37, F -0.481, C -0.127, E -0.108, D -0.359
E7: S -0.497, Y -0.589, N -0.118, M -0.63, G -1.05, V -0.826, F -0.808, A -0.996, R 0.032, I -0.739, D -0.101, C -0.493, L -0.89, W -0.275, K -0.12, Q -0.429
V11: N -0.144, G -0.101, E -0.106, S -0.061, M -0.255, K 0.053, W -0.04, C -0.077, D -0.138, R -0.013, Y -0.027, L -0.129, F -0.138, I -0.185
E14: Y -0.67, R -0.61, N -0.508, L -0.71, T -0.4, M -0.649, S -0.274, I -0.712, K -0.449, Q -0.456, F -0.852, C -0.838, V -0.651, H -0.373, A -0.456, D -0.271
R15: Y -0.338, K 0.234, Q -0.143, V -0.45, G -0.15, P -0.163, E 0.084, I -0.312, L -0.501, M -0.364, N 0.063, F -0.258, S -0.089, H -0.061, D 0.096, T 0.05
K3: C -0.411, G -0.45, L -0.474, M -0.583, N -0.139, Y -0.717, R -0.251, I -0.656, D -0.144, E 0.001, S -0.297, V -0.431, F -0.595, W -0.691
V1: H -0.877, K -0.403, L -0.536, P 0.071, M -0.16, Y -0.269, F -0.054, S -0.512, T -0.337, A -0.12, I 0.005, N -0.557
S12: H -0.353, R -0.511, G 0.019, Y -0.48, P -0.486, F -0.038, Q -0.034, C 0.024, L -0.005, A -0.007, V 0.095, I 0.042, D 0.019, M -0.093, K -0.275, W -0.416, E -0.429, N -0.202
V16: T -0.024, P -0.416, Y -0.045, I -0.058, F -0.224, R -0.718, H -0.031, A 0.037, M -0.076, K -0.16, N 0.042, D 0.347
S10: F -0.655, C -0.43, R -0.129, N -0.024, M -0.175, V -0.167, K -0.17, L -0.261, Y -0.286, P -0.835, E -0.41, G 0.027, I -0.316, D -0.029, H -0.275, T 0.016, Q -0.165, W -0.788
G17: T -0.134, L -0.478, M -0.296, H -0.116, C -0.17, K 0.157, S -0.24, D -0.398, N 0.015, R -0.025, I -0.254, F -0.465, Y -0.4, V -0.1, Q -0.075, W -0.49, P -0.484, A -0.07
L4: W -0.506
I5: H -1.46, F -0.372, V -0.267, C -0.415, R -1.24, E -1.13, W -0.46, D -1.04, M -0.33, N -0.664, L -0.244, A -0.705, G -0.942, P -1.16, T -0.985, Q -1.28
A8: C -0.137, T -0.447, Y -0.345, W -0.026, H -0.324, L -0.275, I -0.032, F -0.217, D -1.13, M -0.163, E -0.719, K -0.411, P -1.06, Q -0.584, S -0.42, G -0.522, N -0.531, R -0.335
S2: F -0.383, T -0.145, C -0.438, E 0.566, Y -0.185, H -0.474, L -0.398, K 0.251, Q -0.344, V -0.652, N 0.051, I -0.234, D 0.251, A -0.404, P -0.456, M -0.316
T6: N -0.031, H -0.05, D -0.299, Y -0.298, M -0.098, W -0.737, R -0.04, P -1.24, F -0.578, E -0.112, L -0.222, Q -0.002, K 0.092, V -0.153, A -0.536, G -0.629, S -0.168, C -0.181, I -0.071

Variants of: B2
Assay: as above
Conditions: Homo sapiens

Abundance fitness of substitutions, site by site:
M44: C -0.037, E 0.052, G -0.063, W -0.232, Q 0.055, S -0.04, V 0.011, A -0.053, R -0.057, L -0.11, P -0.148
K43: H 0.169, N -0.038, R -0.027, I -0.435, M -0.071, D -0.03, P -0.333, S -0.035, A 0.034, C -0.156, T -0.004, E 0.133, V -0.135, L -0.117, G -0.036, Y -0.194
F40: R -0.248, A -0.018, T -0.16, W 0.075, P -0.157, M -0.042, I -0.171, S -0.131, D -0.055, G -0.163, E 0.103, Q -0.068, C -0.016, V -0.097, K -0.177
S42: V -0.219, G -0.002, C -0.258, H 0.054, W -0.14, T 0.103, Q 0.127, L -0.248, E 0.136, R 0.048, P -0.401, A -0.023, D 0.033, F -0.229, Y -0.142, K 0.055
I41: Y -0.434, P -0.232, S -0.217, M 0.046, C -0.225, R -0.361, F -0.525, A -0.282, H -0.272, L -0.046, D -0.11, Q -0.286, N -0.429, K -0.255, V -0.411, W -0.648, G -0.282, E -0.165
